Measurements from US20180057604A1 (Genentech, published 2018).
Where a chain is given by its changes, count along the chain named.

T1: cyno TfR extracellular domain (analogous construct to human TfR ecd) (cynomolgus monkey, UniProt Q5RDH6 87-760 (Pongo abelii entry))
T1 construct: also called cynoTfR ecd
T1 chain: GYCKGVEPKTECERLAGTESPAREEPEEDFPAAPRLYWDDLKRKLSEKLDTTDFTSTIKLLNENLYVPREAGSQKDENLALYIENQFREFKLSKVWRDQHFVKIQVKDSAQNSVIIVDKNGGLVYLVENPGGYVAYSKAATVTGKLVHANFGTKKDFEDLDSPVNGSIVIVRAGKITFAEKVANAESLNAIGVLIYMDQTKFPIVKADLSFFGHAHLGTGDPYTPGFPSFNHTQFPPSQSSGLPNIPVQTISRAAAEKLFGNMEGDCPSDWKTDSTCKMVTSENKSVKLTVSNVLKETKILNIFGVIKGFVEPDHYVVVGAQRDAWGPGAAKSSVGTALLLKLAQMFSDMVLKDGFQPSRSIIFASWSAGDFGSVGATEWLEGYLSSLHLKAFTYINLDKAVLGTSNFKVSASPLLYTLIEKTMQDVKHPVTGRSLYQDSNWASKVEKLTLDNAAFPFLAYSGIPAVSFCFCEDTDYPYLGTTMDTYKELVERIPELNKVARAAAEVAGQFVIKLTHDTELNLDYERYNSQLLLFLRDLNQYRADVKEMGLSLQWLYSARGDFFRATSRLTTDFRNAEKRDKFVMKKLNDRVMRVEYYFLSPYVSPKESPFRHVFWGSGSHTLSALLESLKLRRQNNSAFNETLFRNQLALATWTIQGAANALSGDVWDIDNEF

B1: 5572 (antibody, V domains shown)
VH: QVQLVQSGAEVKKPGSSVKVSCKASGGTFSSYAISWVRQAPGQGLEWMGSIIPIFGTANYAQKFQGRVTITADESTSTAYMELSSLRSEDTAVYYCARSGGTKYGMLDVWGQGTMVTVSS
VL: EIVMTQSPATLSVSPGERATLSCRASQSVGSNLAWYQQKPGQAPRLLIYGASTRATGIPARFSGSGSGTEFTLTISSLQSEDFAVYYCQQLYTWPPRTFGGGTKVEIK
notes: anti-BACE1 IgG
B2: 5644 (antibody, V domains shown)
VH: QLQLQESGPGLVKPSETLSLTCTVSGGSISSSSYYWGWIRQPPGKGLEWIGSIYYSGSTYYNPSLKSRVTISVDTSKNQFSLKLSSVTAADTAVYYCARVGHGISYFDLWGRGTLVTVSS
VL: B1 VL with M4L, V13L, G30S, N32Y, G50D, T53K, E70D, Q79E, S80P, L91V
notes: anti-BACE1 IgG
B3: 5883 (antibody, V domains shown)
VH: B1 VH with S50G, F55G, T57G
VL: B1 VL with G30S, Y92I, T93L
notes: anti-BACE1 IgG
B4: hu7A4.v1 (antibody, V domains shown)
VH: EVQLVQSGAEVKKPGASVKVSCKASGYTFTDYAMHWVRQAPGQGLEWMGGISTYFGRTNYNQKFKGRVTMTRDTSISTAYMELSRLRSDDTAVYYCARGLSGNYVMDYWGQGTTVTVSS
VL: DIVMTQSPDSLAVSLGERATINCRASESVDSYGNSFMHWYQQKPGQPPKLLIYRASNLESGVPDRFSGSGSGTDFTLTISSLQAEDVAVYYCQQSNEGPPTFGQGTKLEIK
notes: IgG
B5: hu7A4.v2 (antibody, V domains shown)
VH: B4 VH with A24G
VL: B4 VL
notes: IgG
B6: hu15G11.v1 (antibody, V domains shown)
VH: EVQLVQSGAEVKKPGASVKVSCKASGYTFTSYWMHWVRQAPGQRLEWMGEINPTNGRTNYIEKFKSRVTITRDTSASTAYMELSSLRSEDTAVYYCARGTRAYHYWGQGTMVTVSS
VL: DIQMTQSPSSLSASVGDRVTITCRASDNLYSNLAWYQQKPGKAPKLLLYDATNLADGVPSRFSGSGSGTDYTLTISSLQPEDFATYYCQHFWGTPLTFGQGTKVEIK
notes: IgG; HC 48 M, 67 V, 69 I, 71 R, 73 T
B7: hu15G11.v3 (antibody, V domains shown)
VH: B6 VH
VL: B6 VL with A43S, L48V
notes: as for B6
B8: hu15G11.v2 (antibody, V domains shown)
VH: B6 VH with R72V
VL: B6 VL
notes: IgG; HC 48 M, 67 V, 69 I, 71 V, 73 T
B9: hu15G11.v4 (antibody, V domains shown)
VH: B6 VH with R72V
VL: B6 VL with A43S, L48V
notes: as for B8

Each binder was assayed against BACE1 (HTRF long substrate and FRET short substrate assays of Example 9D) (assay: cell-based or functional assay).

EC50, FRET short substrate | EC50, HTRF long substrate | Binder
15.9 nM | 1.28 nM | B1
8.47 nM | 8.75 nM | B2
0.607 nM | 5.93 nM | B3

The binders below were run against T2, human BACE1 ECD (assay: Octet, pH 7.5;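 also: antibodies captured on anti-human capture biosensor tips, dissociation followed in PBS with BSA buffer, kinetics fitted with a one-to-one binding model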).
T2 construct: analyte of the Octet assay (200 nM) and enzyme of the first short substrate assay; also called human BACE1 extracellular domain
T2 sequence (single chain, as listed by the source limits assumed): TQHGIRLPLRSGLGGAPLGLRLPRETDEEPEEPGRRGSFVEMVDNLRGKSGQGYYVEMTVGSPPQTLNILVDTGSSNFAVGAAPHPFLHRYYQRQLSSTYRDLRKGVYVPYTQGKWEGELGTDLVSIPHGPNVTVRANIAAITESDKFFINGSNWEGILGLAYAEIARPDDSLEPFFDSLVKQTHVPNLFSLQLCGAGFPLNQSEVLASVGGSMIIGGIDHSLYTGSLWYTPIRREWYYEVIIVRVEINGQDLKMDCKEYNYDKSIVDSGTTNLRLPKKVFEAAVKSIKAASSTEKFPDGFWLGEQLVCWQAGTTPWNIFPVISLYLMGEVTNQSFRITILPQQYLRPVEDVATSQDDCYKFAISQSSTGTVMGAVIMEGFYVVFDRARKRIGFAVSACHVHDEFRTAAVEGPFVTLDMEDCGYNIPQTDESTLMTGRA

Kd | Binder
0.86 nM | B1
15 nM | B2
4.6 nM | B3

What follows are binders tested against T3, murine BACE1 ECD (assay: Octet, pH 7.5;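 also: antibodies captured on anti-human capture biosensor tips, dissociation followed in PBS with BSA buffer, kinetics fitted with a one-to-one binding model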).
T3 construct: analyte of the Octet assay (200 nM) and enzyme of the first short substrate assay
T3 sequence (single chain, as listed by the source limits assumed): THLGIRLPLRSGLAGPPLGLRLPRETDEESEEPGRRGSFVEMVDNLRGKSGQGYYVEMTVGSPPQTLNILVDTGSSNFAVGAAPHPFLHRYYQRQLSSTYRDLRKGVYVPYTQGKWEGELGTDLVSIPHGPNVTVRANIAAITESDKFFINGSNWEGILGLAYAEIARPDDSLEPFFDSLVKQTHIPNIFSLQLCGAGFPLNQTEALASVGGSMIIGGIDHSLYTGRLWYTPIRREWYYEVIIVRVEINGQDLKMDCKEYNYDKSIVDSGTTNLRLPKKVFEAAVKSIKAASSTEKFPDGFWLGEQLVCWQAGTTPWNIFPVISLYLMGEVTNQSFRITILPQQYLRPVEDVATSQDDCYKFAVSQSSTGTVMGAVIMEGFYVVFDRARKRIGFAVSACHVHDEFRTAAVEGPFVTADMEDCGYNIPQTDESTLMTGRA

Kd | Binder
2.5 nM | B1
17 nM | B2
6.6 nM | B3

These binders were tested against T4, human BACE1 (R&D Systems) (human, UniProt P56817) (assay: SPR (Biacore)).
T4 construct: recombinant, commercial (R&D Systems)
T4 sequence (P56817 22-457 limits assumed): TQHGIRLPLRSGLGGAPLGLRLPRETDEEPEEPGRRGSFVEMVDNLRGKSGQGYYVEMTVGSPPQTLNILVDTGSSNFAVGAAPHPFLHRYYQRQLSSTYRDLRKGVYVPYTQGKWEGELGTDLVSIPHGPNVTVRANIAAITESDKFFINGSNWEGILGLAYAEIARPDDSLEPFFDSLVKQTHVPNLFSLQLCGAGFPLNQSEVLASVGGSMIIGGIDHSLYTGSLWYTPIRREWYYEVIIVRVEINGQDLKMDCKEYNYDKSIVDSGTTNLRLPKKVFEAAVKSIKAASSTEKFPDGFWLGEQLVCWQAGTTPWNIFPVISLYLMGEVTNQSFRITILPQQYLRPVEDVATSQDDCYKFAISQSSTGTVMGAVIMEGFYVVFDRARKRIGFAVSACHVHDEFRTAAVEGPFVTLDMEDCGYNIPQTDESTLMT

Kd | Binder
2.82 nM | B1
13.3 nM | B2
6.04 nM | B3

Each binder was assayed against T2, human BACE1 ECD (assay: Octet, pH 5.0).

Kd | Binder
1.5 nM | B1
12 nM | B2
8.7 nM | B3

The binders below were run against T3, murine BACE1 ECD (assay: Octet, pH 5.0).

Kd | Binder
2 nM | B1
11 nM | B2
11 nM | B3

Each binder was assayed against BACE1 in primary mouse cortical neurons (mouse, UniProt P56818 46-501) (assay: cell-based or functional assay).
Chain of BACE1 in primary mouse cortical neurons (P56818 46-501): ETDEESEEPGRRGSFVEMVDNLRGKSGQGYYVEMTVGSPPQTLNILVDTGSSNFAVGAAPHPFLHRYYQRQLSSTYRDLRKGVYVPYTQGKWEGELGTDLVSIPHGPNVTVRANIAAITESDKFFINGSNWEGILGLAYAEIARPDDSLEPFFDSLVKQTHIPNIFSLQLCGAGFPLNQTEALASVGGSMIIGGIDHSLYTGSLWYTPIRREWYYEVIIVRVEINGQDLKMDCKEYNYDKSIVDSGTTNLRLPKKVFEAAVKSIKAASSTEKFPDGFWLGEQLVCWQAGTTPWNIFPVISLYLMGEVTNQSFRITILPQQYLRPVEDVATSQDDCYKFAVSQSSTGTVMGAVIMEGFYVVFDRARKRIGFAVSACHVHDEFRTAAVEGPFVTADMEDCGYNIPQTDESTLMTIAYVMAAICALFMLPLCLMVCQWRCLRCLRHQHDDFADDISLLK

IC50, Abeta x-40 in mouse cortical neurons | maximal % inhibition of Abeta x-40 | Binder
27.1 nM | 73% | B1
8.33 nM | 72% | B2
9.11 nM | 82% | B3

The binders below were run against T5, human TfR extracellular domain with N-terminal His tag (human, UniProt P02786 89-760) (assay: SPR, IgG;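 also: His-tagged TfR captured via immobilized anti-His antibody on a CM5 chip, antibody injected in 3-fold dilution series by single cycle kinetics, 1:1 Langmuir or steady-state fit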).
T5 construct: Biotinylated in some assays; also called huTfR; HuTfR
T5 sequence (P02786 89-760 G142S): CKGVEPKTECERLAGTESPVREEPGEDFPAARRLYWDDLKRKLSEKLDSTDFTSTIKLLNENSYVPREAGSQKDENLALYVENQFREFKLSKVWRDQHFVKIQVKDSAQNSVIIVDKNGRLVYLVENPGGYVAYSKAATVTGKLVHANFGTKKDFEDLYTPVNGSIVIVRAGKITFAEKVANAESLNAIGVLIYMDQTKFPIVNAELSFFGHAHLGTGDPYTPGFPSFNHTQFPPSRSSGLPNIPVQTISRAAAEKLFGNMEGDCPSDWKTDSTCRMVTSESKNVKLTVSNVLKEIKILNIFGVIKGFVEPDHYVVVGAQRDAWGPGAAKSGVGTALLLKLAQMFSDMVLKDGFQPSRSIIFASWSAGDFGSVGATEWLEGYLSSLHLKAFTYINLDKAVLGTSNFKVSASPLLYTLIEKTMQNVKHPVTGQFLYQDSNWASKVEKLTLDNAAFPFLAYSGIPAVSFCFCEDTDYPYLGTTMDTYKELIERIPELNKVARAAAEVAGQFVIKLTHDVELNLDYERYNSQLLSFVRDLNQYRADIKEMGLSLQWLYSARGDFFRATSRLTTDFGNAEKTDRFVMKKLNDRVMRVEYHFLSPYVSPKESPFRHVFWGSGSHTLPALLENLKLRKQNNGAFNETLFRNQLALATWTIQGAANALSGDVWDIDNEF

Kd | Binder
0.279 nM | B4
0.232 nM | B5
5.12 nM | B6
4.12 nM | B7
9.35 nM | B8
3.89 nM | B9

Target: T1, cyno TfR extracellular domain …
Assay: SPR, IgG;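 also: His-tagged TfR captured via immobilized anti-His antibody on a CM5 chip, antibody injected in 3-fold dilution series by single cycle kinetics, 1:1 Langmuir or steady-state fit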

Kd | Binder
1.67 nM | B4
1.22 nM | B5
10.1 nM | B6
5.34 nM | B7
17.6 nM | B8
7.04 nM | B9

The binders below were run against T2, human BACE1 ECD (assay: cell-based or functional assay).

% inhibition of BACE1 activity, short FRET substrate | Binder
75% | B1
65% | B2
-129% | B3

These binders were tested against T3, murine BACE1 ECD (assay: cell-based or functional assay).

% inhibition of BACE1 activity, short FRET substrate | Binder
77% | B1
63% | B2
-275% | B3
